Assay results published in patent publication US20260184748A1 (University of Pennsylvania, published 2026).
Where no end group is shown, it is not given here.

Assays:
Assay in all cases: cell-based or functional assay
ADRB2 = ADRB2 (UniProt P07550 1-413)
HRH2 = HRH2 (UniProt P25021 1-359)
AGTRL1 = molecular target: T1, AGTRL1 (UniProt P35414 1-380)
T1 sequence (looked up): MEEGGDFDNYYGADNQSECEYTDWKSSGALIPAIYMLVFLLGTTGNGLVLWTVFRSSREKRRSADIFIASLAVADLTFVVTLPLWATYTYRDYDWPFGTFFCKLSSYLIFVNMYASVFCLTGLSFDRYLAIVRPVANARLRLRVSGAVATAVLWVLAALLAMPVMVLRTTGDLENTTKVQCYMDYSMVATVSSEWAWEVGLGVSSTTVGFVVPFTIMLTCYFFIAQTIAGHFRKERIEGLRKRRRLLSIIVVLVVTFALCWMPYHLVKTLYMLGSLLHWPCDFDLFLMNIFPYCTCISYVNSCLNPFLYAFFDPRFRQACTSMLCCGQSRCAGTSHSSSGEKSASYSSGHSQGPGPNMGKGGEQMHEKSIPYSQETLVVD

MRGPRX2 = molecular target: T2, MRGPRX2 (UniProt Q96LB1 1-330)
T2 sequence (looked up): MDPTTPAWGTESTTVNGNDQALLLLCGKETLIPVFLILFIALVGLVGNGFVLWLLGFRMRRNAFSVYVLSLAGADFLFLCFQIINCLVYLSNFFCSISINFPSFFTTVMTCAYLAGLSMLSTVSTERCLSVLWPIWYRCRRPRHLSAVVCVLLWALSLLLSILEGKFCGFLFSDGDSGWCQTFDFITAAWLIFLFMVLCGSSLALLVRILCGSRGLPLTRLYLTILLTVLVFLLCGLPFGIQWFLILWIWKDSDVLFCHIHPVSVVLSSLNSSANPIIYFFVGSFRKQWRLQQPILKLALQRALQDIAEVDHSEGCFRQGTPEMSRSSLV

NPFFR1 = NPFFR1 (UniProt Q9GZQ6 1-430)
Chain of NPFFR1 (Q9GZQ6 whole entry): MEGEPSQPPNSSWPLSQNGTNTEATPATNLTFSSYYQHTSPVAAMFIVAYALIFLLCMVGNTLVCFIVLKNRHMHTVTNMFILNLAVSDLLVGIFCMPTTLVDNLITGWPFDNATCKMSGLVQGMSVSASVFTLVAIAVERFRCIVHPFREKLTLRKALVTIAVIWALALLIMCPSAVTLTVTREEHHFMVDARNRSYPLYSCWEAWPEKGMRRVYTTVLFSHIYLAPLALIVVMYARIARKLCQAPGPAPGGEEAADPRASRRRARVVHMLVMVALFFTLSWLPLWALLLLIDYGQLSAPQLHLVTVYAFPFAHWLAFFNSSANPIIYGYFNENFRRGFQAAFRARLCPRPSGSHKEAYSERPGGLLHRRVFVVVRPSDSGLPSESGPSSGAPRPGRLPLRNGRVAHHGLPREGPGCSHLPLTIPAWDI

NTSR1 = NTSR1 (UniProt P30989 1-418)
Chain of NTSR1 (P30989 whole entry): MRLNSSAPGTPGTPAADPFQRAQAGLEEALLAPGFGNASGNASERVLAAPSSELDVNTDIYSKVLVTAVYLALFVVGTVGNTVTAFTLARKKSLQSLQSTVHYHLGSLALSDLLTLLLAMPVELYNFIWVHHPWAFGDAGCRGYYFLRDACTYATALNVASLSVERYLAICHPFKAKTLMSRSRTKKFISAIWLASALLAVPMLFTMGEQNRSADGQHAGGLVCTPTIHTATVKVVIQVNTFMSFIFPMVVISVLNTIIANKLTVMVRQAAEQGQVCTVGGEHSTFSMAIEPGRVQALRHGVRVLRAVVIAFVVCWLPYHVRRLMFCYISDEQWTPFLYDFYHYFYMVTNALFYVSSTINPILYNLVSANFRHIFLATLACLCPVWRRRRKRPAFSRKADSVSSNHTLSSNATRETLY

PRLHR = molecular target: T3, PRLHR (UniProt P49683 1-370)
T3 sequence (looked up): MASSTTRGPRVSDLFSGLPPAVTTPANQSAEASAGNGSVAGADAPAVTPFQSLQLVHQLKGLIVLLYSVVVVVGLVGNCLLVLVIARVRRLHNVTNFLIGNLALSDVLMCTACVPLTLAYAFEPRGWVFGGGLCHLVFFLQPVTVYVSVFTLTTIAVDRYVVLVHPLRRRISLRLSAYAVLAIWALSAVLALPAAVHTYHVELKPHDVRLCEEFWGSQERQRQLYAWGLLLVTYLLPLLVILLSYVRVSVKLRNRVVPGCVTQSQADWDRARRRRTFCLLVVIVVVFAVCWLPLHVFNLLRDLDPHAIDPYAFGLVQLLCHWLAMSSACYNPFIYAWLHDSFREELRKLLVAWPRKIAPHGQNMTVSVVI

AVPR2 = AVPR2 (UniProt P30518 1-371)
CX3CR1 = molecular target: T4, CX3CR1 (UniProt P49238 1-355)
T4 sequence (looked up): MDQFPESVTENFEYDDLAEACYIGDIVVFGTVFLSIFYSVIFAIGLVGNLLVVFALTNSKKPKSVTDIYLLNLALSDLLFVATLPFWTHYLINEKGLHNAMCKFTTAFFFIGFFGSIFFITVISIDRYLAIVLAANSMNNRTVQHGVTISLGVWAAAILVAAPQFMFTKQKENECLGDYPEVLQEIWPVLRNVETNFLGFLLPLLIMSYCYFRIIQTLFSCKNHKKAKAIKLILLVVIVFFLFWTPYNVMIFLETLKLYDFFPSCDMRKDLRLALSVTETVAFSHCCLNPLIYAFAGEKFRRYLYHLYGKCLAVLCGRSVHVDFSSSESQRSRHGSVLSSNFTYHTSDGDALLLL

CXCR3 = molecular target: T5, CXCR3 (UniProt P49682 1-368)
T5 sequence (looked up): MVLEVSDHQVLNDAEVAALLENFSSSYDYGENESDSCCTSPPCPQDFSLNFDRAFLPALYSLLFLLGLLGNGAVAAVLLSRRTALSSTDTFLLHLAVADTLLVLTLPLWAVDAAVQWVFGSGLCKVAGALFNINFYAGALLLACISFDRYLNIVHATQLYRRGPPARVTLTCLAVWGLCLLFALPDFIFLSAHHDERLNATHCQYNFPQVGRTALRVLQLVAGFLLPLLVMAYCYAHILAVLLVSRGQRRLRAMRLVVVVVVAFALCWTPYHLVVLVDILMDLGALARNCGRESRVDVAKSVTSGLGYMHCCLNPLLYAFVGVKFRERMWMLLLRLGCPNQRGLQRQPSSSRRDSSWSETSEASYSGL

ADRA2A = molecular target: T6, ADRA2A (UniProt P08913 1-465)
T6 sequence (looked up): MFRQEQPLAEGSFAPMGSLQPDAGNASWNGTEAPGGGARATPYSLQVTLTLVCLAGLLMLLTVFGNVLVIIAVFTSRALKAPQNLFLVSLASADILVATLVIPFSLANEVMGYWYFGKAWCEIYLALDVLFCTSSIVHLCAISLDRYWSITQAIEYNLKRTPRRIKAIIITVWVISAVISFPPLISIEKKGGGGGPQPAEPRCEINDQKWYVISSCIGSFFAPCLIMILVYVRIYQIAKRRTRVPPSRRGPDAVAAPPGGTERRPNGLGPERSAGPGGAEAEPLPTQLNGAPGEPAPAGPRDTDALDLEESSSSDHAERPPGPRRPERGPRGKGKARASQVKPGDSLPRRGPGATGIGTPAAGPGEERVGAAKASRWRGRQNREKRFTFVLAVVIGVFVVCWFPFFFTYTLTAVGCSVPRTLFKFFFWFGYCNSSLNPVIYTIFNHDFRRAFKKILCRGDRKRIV

EDG5 = EDG5 (UniProt O95136 1-353)
Chain of EDG5 (O95136 whole entry): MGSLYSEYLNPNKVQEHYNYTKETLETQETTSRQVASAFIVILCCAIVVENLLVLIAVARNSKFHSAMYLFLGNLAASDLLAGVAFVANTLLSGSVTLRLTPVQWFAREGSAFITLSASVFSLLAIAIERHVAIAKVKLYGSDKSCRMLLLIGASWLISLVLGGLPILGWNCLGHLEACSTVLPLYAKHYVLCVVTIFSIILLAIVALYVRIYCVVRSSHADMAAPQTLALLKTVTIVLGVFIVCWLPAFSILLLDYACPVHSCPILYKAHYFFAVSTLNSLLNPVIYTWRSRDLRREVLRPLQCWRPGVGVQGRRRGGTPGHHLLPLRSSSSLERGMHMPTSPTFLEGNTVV

Chain of HRH2 (P25021 whole entry): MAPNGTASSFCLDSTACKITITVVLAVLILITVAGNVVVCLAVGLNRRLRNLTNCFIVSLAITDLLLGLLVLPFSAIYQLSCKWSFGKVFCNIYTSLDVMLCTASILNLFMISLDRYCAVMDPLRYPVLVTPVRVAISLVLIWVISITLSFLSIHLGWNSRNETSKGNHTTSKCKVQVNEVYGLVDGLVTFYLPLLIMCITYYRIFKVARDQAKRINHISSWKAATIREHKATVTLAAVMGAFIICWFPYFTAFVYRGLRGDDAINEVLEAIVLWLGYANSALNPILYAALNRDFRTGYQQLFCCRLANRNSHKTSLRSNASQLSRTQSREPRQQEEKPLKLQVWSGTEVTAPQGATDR

With QATVGDVNTDRPGLLDLK (also: synthesised on Rink amide resin, C-terminal amide not given here outright) [octadecaneuropeptide (ODN)] the “% Activity, arrestin, antagonist mode, 2.5 uM” value (shortened to “% Activity, arrestin”) (ADRB2) was -11.7%, the “% Activity, arrestin” value (HRH2) was -13.3% and the “% Activity, arrestin” value (AGTRL1) was -23.4%. For the same binder, the “% Activity, arrestin” value (MRGPRX2) was -23.5%, the “% Activity, arrestin” value (NPFFR1) was -4.2% and the “% Activity, arrestin” value (NTSR1) was -21.4%. The “% Activity, arrestin” value (PRLHR) was -22.2%, the “% Activity, arrestin” value (AVPR2) was -11.2% and the “% Activity, arrestin” value (CX3CR1) was -0.8%. The “% Activity, arrestin” value (CXCR3) was -7.5%, the “% Activity, arrestin” value (ADRA2A) was -27.2% and the “% Activity, arrestin” value (EDG5) was -11.2%.
